Literature values as cited in patent US7776558B2, “Human G protein-coupled receptor and modulators thereof for the treatment of cell death-related disorders” (Arena Pharmaceuticals, Inc., priority 2003, dated 2010).

Tests used:
FPRL2 = molecular target: T1, FPRL2 (Homo sapiens, UniProt P25089); details: cited from earlier work
T1 sequence (P25089 1-353): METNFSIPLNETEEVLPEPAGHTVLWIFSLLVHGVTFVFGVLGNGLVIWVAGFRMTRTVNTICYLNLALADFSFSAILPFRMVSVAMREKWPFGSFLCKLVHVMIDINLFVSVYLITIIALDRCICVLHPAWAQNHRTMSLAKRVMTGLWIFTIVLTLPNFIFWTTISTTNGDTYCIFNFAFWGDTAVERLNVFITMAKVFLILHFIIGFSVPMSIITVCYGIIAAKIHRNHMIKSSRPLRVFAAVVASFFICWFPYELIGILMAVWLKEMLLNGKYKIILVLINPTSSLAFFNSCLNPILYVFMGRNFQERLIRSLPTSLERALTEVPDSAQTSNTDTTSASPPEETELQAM

[1] = molecular target: T2, FPRL2 on mature human dendritic cells (Homo sapiens, UniProt P25089); details: Yang et al. 2002; cited from earlier work
T2 construct: host or cells: mature human dendritic cells
T2 sequence (P25089 1-353): T1 sequence (P25089 1-353)

## CCCCC[C@H](O)/C=C/C=C\C=C\C=C\[C@@H](O)[C@@H](O)CCCC(=O)O [lipoxin A4]
FPRL2
  Ligand status at FPRL2: shown not to be ligands for FPRL2

## WKYMVm
[1]
  Binding to FPRL2: bind to FPRL2 on mature human dendritic cells
  Intracellular Ca2+: elicit an increase in intracellular Ca^2+
